# Test results published in US20240174746A1 (Alector, published 2024).
# Changes are numbered by the printed parent chain.
# B1: TM-72 (antibody, V domains shown)
# VH: QVQLQQPGAELVKPGTSVKLSCKASGSTFTNYWMHWVMQRPGQGLEWIGNIDPSDSDTHYNQKFKDRAKLTVDKSSSTAYMQLSGLTSEDSAVYYCARSRGGYYDYGEAMDYWGQGTSVTVSS
# VL: DIVMTQAAPSVPVTPGESVSISCRSSKSLLHTNGNTYLFWFIQRPGQSPHLLIYRKSNLASGVPDRFSGSGSGTAFTLRISRVEAEDVGVYYCMQHLEYPFTFGSGTKLEIK
# notes: Purified from mouse hybridoma
# B2: TM-59 (antibody, V domains shown)
# VH: QVQLQQSGAELAKPGASVKLSCKASGYTFISYWMHWVKQRPGQGLEWIGYVNPSSGYTKNNQKFKDKATLTADKSSSTAYMQLSSLTYEDSAVYYCAREGGSISDWYFDVWGTGTTVTVSS
# VL: B1 VL with T32S, L38S, F39Y, I42L, H50Q, K56M, F101Y, S105G
# notes: Purified from mouse hybridoma
# B3: TM-56 (antibody, V domains shown)
# VH: B2 VH with Q3H, I30T, V51I, T58S, N60Y, K63R, S77T, Q82H, E89A, A97T
# VL: B1 VL with V3E, H31Q, T32N, F39Y, I42L, S48P, H50Q, K56M, F101Y, S105G
# notes: Purified from mouse hybridoma
# B4: TM-62 (antibody, V domains shown)
# VH: QVQLQQPGTELVRPGSSVKLSCKAAGYTFTRYWMHWVKQRPIQGLEWIGNIDPSDSETQYNPKFKDKATLTVDRSSSTAYMHLSSLTSEDSAVYYCARLTTLDYAMDYWGQGTSVTVSS
# VL: QIVLTQSPAIMSASPGEKVTISCSASSSVSYMYWYQQKAGSSPKPWIHRTSNLASGVPARFSGSGSGTSYSLTIRSMEAEDAATYYCQQYHSYPPTFGVGTKLELK
# notes: Purified from mouse hybridoma
# B5: TM-73 (antibody, V domains shown)
# VH: QVQLQQPGAELVKPGASVKLSCKASGYTFTSHWMHWVKHRPGQGLEWIGEIDPSDSYTYYNQKFKGKATLTVDKSSSTVYMQLSSLTSEDSAVYYCARNYHGSGPPFAHWGQGTLVTVSS
# VL: QIVLTQSPAIMSASPGEKVTLTCSASSGISYIYWYQQRPGSSPRLLIYDTSNLASGVPVRFSGSGSETSYSLTISRLEAEDAATYYCHQWRSYPPTFGGGTKLEIR
# notes: Purified from mouse hybridoma
# B6: TM-65 (antibody, V domains shown)
# VH: QVQLQQPGAEFVKPGASVRLSCKTSGYTFTSSWMHWVKQRPGQGLEWIGEINPKNGGTNYNEKFKTKATLTVDKSSNTAYMQLSSLTSEDSAVYYCTIPTWFTYWGQGTLVTVSS
# VL: DIQMNQSPSSLSASLGDTITITCRASQNINIWLSWYQQKPGNVPKLLIYKASNLHTGVPSRFSGSGSGTGFTLTISSLQPEDIATYYCLQGQSYPYTFGGGTKLGIK
# notes: Purified from mouse hybridoma
# B7: TM-82 (antibody, V domains shown)
# VH: QVQLQQSGAELVRPGTSVRVSCKASGYAFTNYLIEWIKQRPGQGLEWIGVINPGSGITDYSEKFKGKARLTADKSSSTAYMQLSSLTSDDSAVYFCTRSPFITTVVADYWGQGTTVTVSS
# VL: DVVVTQTPLSLPVSFGDQVSISCRSSQSLANTYGNTYLSWYLHTPGQSPQLLIFGISNRFSGVPDRFSGSGSGTDFTLKISTIKPEDLGVYYCLQGTHPPRTFGGGTKLEMK
# notes: Purified from mouse hybridoma
# B8: TM-66 (antibody, V domains shown)
# VH: EVMLVESGGALVEPGGSLKLSCAASGITFSNYAMSWIRQTPEKRLEWVATIGSVGSYTYYPDSVKGRFTISRDNARNTLYLQMSSLRSEDTAMYYCARQEGSSHFDYWGQGTTLTVSS
# VL: DVVVTQTPPSLPVSFGDQVSISCRSSQSLVNSYGKTFLSWYLHKPGQSPQLLIYGISNRFSGVPDRFSGSGSGTVFTLKISTIKPEDLGMYYCLQGTHPPLTFGAGTKLEMK
# notes: Purified from mouse hybridoma
# B9: TM-54 (antibody, V domains shown)
# VH: QVQMQQSGPVLVKPGASVTLSCKASGYTFTTYDLNWVKQRPGQGLEWIGWIYPRGGSTEYNEKFKGKATLTVDTSSSTAYMELHSLTSEDSAVYFCAKYSIYAMDYWGQGTSVTVSS
# VL: DVLMTQTPLSLPVSLGDQASISCRSSQSIVHGNGNTYLEWYLQKPGQSPKLLIYKVSNRFSGVPDRFSGSGSGTDFTLKISRVEAEDLGVYYCFQGSHVPWTFGGGTKLEMK
# notes: Purified from mouse hybridoma
# B10: TM-90 (antibody, V domains shown)
# VH: QVHLQQSGPELVKPGASVKLSCKASGYPFTSYDINWVKQRPGQGLEWIGWIYPRDGNAKYNEKFKGKATLTVDTSSSTAYMELHSLTSENSAVYFCARVSDYHGGYGMDYWGQGTSVTVSS
# VL: B9 VL with I29F, N58H, S81T, G96N, W101H, M111I
# notes: Purified from mouse hybridoma
# B11: TM-60 (antibody, V domains shown)
# VH: QVQLQQSGPELVKPGASVKLSCKASGYTFTSYDINWVKQRPGQGLEWIGWIYPRDGNTQYIEKLKGKATLTVDTSSSTAYMELHSLTSEDSAVYFCARWIFYAMDYWGQGTSVTVSS
# VL: B9 VL with V99L, W101Y, M111I
# notes: Purified from mouse hybridoma
# B12: TM-61 (antibody, V domains shown)
# VH: QVQLQQSGAELAKPGASVKLSCKASGYTFTNYWMNWVKQRPGQGLEWIGYINPSSDYTKYNQNFKDKATLTADKSSSTAYMQLNSLTYEDSAVYYCTRWGGSRSYWYFDVWGAGTTVTVSS
# VL: DIVMTQSPSSLSASAGEKVTMSCKSSQSLLNSGNQKNYLAWYQQKPGQSPKLLIYGASTRESGVPDRFTGSGSGTDFTLTISSVQAEDLAVYYCQNDSNYPFTFGGGTKLEMK
# notes: Purified from mouse hybridoma
# B13: TM-76 (antibody, V domains shown)
# VH: QVTLKESGPGILQPSQTLSLTCSFSGFSLSTSGMGVSWIRKPSGKGLEWLAHIFWDDDKRYNLFLKSRLTVSKDTSSNQVFLMITSVDTTDTATYYCARMGRQRDYFDYWGQGTSLTVSS
# VL: QIILTQSPAIMSASLGEEITLTCSASLSISYVHWYQQKSGASPKLLIYGTSNLASGVPSRFSGSGSGTFYSLTISSVEAEDAADYYCHQWSIYRTFGGGTKLEMK
# notes: Purified from mouse hybridoma
# B14: TM-63 (antibody, V domains shown)
# VH: QVQLQQPGAELVKFGASVKLSCKASGYTFTSFWMHWVKQRPGQGLEWIGNIDPSDSETHYSQKFKDKATLTVDRSSNTAYIQLSSLTSEDSAVYYCARSSNWDNFDYWGQGTTVTVSS
# VL: DIVMTQASPSVSVTPGESVSISCRSSQSLLHVNGNTYLYWFLQRPGRSPRLLIYRMSNLASGVPDRFSGSGSGTAFTLRISRVEAEDVGVYYCMQHLQYPFSFGSGTKLEMK
# notes: Purified from mouse hybridoma
# B15: TM-64 (antibody, V domains shown)
# VH: QVQLQQPGAELVKPGASVKLSCKASGYTFTSYWMHWVKQRPGHGLEWIGNIDPSDSDTHYNQNFRGKATLTVDKFSTTAYMHLSSLTSEDSAVYYCARSRGGTYDYGEAMDYWGQGTSVTVSS
# VL: B1 VL with I42L, Q47R, H50Q, K56M
# notes: Purified from mouse hybridoma
# B16: TM-78 (antibody, V domains shown)
# VH: QVQLQQPGAELVKPGASVKLSCKASGYTFTNHWMHWVRQRPGQGLEWIGNIDPSDSDTHYNHKFKDKATLIVDKSSSTAYLQLSSLTSEDSAVFYCARSRGGYYDYGEAMDYWGQGTSVTVSS
# VL: B1 VL with A8T, V11I, T32V, I42L, H50Q, K56M
# notes: Purified from mouse hybridoma
# B17: TM-83 (antibody, V domains shown)
# VH: QVQLQQPGTELVKPGALVKLSCKASGYTFTTYWIHWVKQRPGQGLEWIGNINPSNGNTKNNERFKTKATLTVDKSSSTAYMQLSSLTSEDSAVYYCVRGDYYGTSYPFWGQGTLVTVSS
# VL: DVVMTQTPLSLPVSLGDQASISCRSSQSLVHSNGITYLHWYLQKPGQSPKLLIYKVSNRFSGVPDRFSGSGSGTDFTLKISRVEAEDLGVYFCSQSTHVPYTFGGGTKLEIK
# notes: Purified from mouse hybridoma
# Legend:
# [1] = biological target: T1, mouse TMEM106B (mouse, UniProt Q80X71 2-275); assay: flow cytometry, HEK293 cells transiently transfected with murine TMEM106B
# T1 construct: Full-length cDNA transiently transfected into HEK293 cells; also called muTMEM106B; murine TMEM106B
# Procedure: (§1) For screening of the hybridoma cell culture supernatants, humanTMEM106B-transfected HEK293 cells were aliquoted in 96-well round bottom plates (2×10⁵ cells per well) and incubated with 50 μL of hybridoma cell culture supernatant on ice for 30 minutes. […] Cell sorting was performed on a FACS Canto system (BD Biosciences) or iQue (Intellicyt), with sort gates drawn to exclude dead (i.e., propidium iodide-positive) cells. Median fluorescence intensity (MFI) of anti-mouse-APC MFI on TMEM106B+ HEK293 cells was calculated for each clone, and those displaying a signal of at least 2-fold over background compared to a secondary-antibody only well were taken forward for further analysis and characterization.
# [2] = biological target: T2, human TMEM106B (human, UniProt Q9NUM4 2-274); assay: flow cytometry, HEK293 cells transiently transfected with human TMEM106B
# T2 construct: Full-length cDNA transiently transfected into HEK293 cells; also called huTMEM106B
# Procedure: as §1
# [3] = biological target: T3, cynomolgus (cyno) TMEM106B (cynomolgus, UniProt Q9NUM4 2-274 (human entry)); assay: flow cytometry, HEK293 cells transiently transfected with cyno TMEM106B
# T3 construct: Full-length cDNA transiently transfected into HEK293 cells
# Procedure: as §1
Binder,fold-change in binding over parental HEK293 cells [1],fold-change in binding over parental HEK293 cells [2],fold-change in binding over parental HEK293 cells [3]
B1,0.23 fold,3.81 fold,–
B2,0.42 fold,8.71 fold,–
B3,0.47 fold,9.35 fold,4.49 fold
B4,0.86 fold,11.4 fold,2.93 fold
B5,0.59 fold,2.57 fold,1.15 fold
B6,1.35 fold,4.14 fold,2.15 fold
B7,0.88 fold,–,1.49 fold
B8,4.07 fold,5.03 fold,7.13 fold
B9,1.17 fold,15.6 fold,6.27 fold
B10,–,1.25 fold,1.32 fold
B11,0.43 fold,4.39 fold,2.63 fold
B12,0.68 fold,5.07 fold,5.15 fold
B13,0.7 fold,6.52 fold,4.35 fold
B14,0.62 fold,7.12 fold,8.24 fold
B15,1.07 fold,12.8 fold,7.12 fold
B16,0.99 fold,9.6 fold,6.88 fold
B17,9.91 fold,0.42 fold,–
